Data set [1] has as its target recombinant tick anticoagulant peptide (rTAP) (UniProt P17726).
Data set [2] has as its target activated, fibrinogen-bound GP IIb/IIIa on activated mouse platelets (mouse) (UniProt Q9QUM0). The data set is described as follows: histology of the wire-injured mouse femoral artery after bead perfusion.
Data set [3] shares this target. In words: ex vivo 11.7 T MRI of the wire-injured mouse femoral artery after bead perfusion.

Chain of activated, fibrinogen-bound GP IIb/IIIa on activated mouse platelets (mouse) (Q9QUM0 32-1033, chain 1 of 2): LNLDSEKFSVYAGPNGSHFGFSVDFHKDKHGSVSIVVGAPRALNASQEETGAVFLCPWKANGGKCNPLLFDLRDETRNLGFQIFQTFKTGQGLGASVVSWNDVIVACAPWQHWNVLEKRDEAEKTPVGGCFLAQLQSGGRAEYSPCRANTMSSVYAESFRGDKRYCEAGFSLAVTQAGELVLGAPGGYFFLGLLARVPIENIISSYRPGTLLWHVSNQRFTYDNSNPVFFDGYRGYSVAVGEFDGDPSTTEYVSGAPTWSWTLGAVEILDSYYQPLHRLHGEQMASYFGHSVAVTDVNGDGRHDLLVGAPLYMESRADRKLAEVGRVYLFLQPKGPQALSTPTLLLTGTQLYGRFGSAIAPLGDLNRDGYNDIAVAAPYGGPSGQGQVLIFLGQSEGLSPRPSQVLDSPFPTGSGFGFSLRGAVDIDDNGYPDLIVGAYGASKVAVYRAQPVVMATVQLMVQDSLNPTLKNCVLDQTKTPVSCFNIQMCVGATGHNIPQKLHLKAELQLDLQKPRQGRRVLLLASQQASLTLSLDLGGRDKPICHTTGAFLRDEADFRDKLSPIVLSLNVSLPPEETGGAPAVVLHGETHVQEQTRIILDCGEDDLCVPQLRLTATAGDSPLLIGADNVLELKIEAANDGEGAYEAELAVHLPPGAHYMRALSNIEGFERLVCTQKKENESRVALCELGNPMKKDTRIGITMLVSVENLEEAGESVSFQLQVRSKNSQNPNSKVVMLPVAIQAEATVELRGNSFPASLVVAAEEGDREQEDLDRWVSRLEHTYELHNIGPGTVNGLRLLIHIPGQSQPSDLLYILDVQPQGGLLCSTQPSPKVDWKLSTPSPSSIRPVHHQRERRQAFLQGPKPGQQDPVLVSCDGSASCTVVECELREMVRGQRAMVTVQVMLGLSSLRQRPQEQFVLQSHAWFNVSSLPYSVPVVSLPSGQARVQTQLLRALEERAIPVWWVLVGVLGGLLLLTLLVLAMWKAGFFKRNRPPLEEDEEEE
Chain of activated, fibrinogen-bound GP IIb/IIIa on activated mouse platelets (mouse) (O54890 26-787, chain 2 of 2, further chain): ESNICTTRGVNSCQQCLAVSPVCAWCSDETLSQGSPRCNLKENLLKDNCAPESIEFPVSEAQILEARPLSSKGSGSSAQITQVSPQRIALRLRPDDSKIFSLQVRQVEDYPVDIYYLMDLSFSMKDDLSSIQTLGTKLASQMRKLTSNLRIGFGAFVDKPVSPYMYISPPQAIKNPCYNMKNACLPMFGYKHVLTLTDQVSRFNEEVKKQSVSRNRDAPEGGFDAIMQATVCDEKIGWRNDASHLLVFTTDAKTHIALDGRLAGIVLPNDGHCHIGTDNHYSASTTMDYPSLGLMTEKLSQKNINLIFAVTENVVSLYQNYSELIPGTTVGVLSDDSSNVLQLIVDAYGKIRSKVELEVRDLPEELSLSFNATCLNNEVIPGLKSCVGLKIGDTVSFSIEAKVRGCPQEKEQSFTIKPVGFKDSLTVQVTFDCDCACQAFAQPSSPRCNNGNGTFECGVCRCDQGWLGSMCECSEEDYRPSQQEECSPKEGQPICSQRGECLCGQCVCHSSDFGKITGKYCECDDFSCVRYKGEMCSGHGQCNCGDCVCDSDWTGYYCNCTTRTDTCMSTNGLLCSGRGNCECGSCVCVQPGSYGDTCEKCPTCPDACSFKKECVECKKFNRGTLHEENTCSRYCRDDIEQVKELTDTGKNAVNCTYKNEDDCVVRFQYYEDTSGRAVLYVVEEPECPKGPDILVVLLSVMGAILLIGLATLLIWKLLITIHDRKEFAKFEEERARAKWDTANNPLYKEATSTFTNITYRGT
Chain of recombinant tick anticoagulant peptide (rTAP) (P17726 whole entry, the tested form may be a part): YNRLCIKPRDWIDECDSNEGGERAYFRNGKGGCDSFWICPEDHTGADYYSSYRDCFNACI

factor Xa: in data set [1], the “cleavage of chromogenic substrate (spectrozyme FXa #222) by factor Xa (500 pM), OD at 405 nm” value is “inhibition of factor Xa activity by rTAP, scFv anti-LIBS-TAP, and non-targeted mut-scFv-TAP, but not by scFv anti-LIBS”. For “irrelevant single-chain antibody conjugated to MPIO (Control-MPIO) (scFv)”, the MPIO-binding (beads per section) (beads per section) in data set [2] is 0.5. Also, the luminal areas of low signal suggesting MPIO-accumulation (ex vivo MRI) in data set [3] is 6.2. In data set [2], “scFv anti-LIBS (anti-LIBS single-chain antibody)” showed an MPIO-binding (beads per section) (beads per section) of 9.98. In data set [3], this substance yielded a luminal areas of low signal suggesting MPIO-accumulation (ex vivo MRI) of 23.7.

Source of the values: US20090148383A1.
